Results taken from patent US20190071499A1 (published 2019).

Assays:
Assay in all cases: SPR
human IFN-ω = human IFN-ω (human, UniProt P05000 24-195)
human IFN-α14 = molecular target: T1, human IFN-α14 (human, UniProt P01570 24-189)
T1 chain: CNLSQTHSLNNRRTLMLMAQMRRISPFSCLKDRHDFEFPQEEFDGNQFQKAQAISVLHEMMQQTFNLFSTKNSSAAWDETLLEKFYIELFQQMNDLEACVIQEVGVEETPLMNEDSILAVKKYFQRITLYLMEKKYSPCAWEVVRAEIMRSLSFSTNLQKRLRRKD

human IFN-α4 = molecular target: T2, human IFN-α4 (human, UniProt P05014 24-189)
T2 chain: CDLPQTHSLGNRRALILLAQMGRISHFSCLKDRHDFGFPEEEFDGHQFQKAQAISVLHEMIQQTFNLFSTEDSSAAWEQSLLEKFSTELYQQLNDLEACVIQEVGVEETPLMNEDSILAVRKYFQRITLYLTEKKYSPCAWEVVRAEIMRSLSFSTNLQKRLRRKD

Sequence of human IFN-ω (P05000 24-195): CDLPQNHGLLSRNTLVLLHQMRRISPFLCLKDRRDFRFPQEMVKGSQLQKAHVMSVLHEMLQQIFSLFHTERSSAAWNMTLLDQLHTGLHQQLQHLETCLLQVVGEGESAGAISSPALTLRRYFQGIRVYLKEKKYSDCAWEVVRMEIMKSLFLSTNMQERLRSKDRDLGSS

B1: 26B9 (antibody, V domains shown)
VH: QILLQESGPGLVKPTETLSLTCSVSGDSISDSSHYWAWIRQPPGKGPEWIGSVYFSSMTHYNPSLKSRVSISVDKPKNQFSLKVTSVTVADTATYYCARQALARVGAMNWFDPWGQGSLVTVSS
VL: DIIMTQSPDSLPVSLGEGVTINCKSSQSVFFTSSNKSCLAWYQQKPGKSPKLLIYWASTRQSGVPDRFRGSGSGTDFSLTITSLQAEDVAVYFCQQCQTSPPTFGGGTRLEIKR
Human IFN-ω
  Kd: 0.125 pM
Human IFN-α14
  Kd: 0.0328 pM
Human IFN-α4
  Kd: 0.0375 pM
